The values below are quoted from earlier work in patent US12065466B2, “Methods and compositions for protein sequencing” (Quantum-Si Incorporated, priority 2020, dated 2024).

This data set has as its system amino acid at a terminal position of a polypeptide. Conditions: Table 2; amino acid identity at a terminal position (phosphotyrosine also internal); inferred from literature and/or demonstrated by the inventors; cited from earlier work.

B1: PS628: UBR-box domain homolog, SEQ ID NO: 188 (protein)
chain: MSHRAYHKNSPCGRIFRKGEPIHRCLTCGFDDTCALCSHCFQPEYHEGHKVHIGICQRENGGVCDCGDPEAWTQELFCPYAVD
modifications: Candida albicans
Take B1: the “Binding Pref.” value is recorded as “K, R, H”.

B2: Escherichia coli leucyl/phenylalanyl-tRNA-protein transferase: amino acid recognition protein, SEQ ID NO: 111 (protein, listed as Escherichia coli)
chain: MRLVQLSRHSIAFPSPEGALREPNGLLALGGDLSPARLLMAYQRGIFPWFSPGDPILWWSPDPRAVLWPESLHISRSMKRFHKRSPYRVTMNYAFGQVIEGCASDREEGTWITRGVVEAYHRLHELGHAHSIEVWREDELVGGMYGVAQGTLFCGESMFSRMENASKTALLVFCEEFIGHGGKLIDCQVLNDHTASLGACEIPRRDYLNYLNQMRLGRLPNNFWVPRCLFSPQELE
Turning to B2, the “Binding Pref.” value is “K, R”.

B3: PS623: UBR-box domain homolog, SEQ ID NO: 183 (protein, listed as Kazachstania naganishii)
chain: MSKQFRHKGRNCGRKFRLGEPLYRCQECGYDDTCVLCINCFNPKDHEGHHIYTDICNDFTSGICDCGDEEAWLSPLHCKAEED
On to B3, for which the “Binding Pref.” value is “K, R, H”.

B4: PS533: UBR-box domain homolog, SEQ ID NO: 161 (protein, listed as Contarinia nasturtii)
chain: MVCGRVFKMNEPFYSCRECGMDPTCVLCVNCFKQSAHRHHKYKMGTSAGGGCCDCGDNEAWKQDHYCDEHTK
B4: the “Binding Pref.” value is listed as “K, R, H”.

B5: PS627: UBR-box domain homolog, SEQ ID NO: 187 (protein, listed as Zygosaccharomyces mellis)
chain: MPKYHQHSGRYCGRKFKVGEPIYRCHECGFDETCVICIHCFNAKDHETHHVSVSICSEYSTGICDCGDTEAFVNPLHCRAEEV
For the molecule B5, the “Binding Pref.” value is on record as “K, R, H”.

B6: PS539: UBR-box domain homolog, SEQ ID NO: 168 (protein, listed as Kazachstania africana)
chain: MQTSFTHKGRNCGRKFKVGEPLYRCHECGFDDTCVLCIHCFNPADHENHHIYTDICNDFTSGICDCGDTEAWNGDLHCKAEEI
For the molecule B6, the “Binding Pref.” value was “K, R, H”.

B7: PS619: UBR-box domain homolog, SEQ ID NO: 179 (protein, listed as Vanderwaltozyma polyspora)
chain: MENLHIGSCCNRQCYPTQTVYYCLTCTINPLYEICELCFDEDKHVGHTYISKSVIRPEGKVCHCGNPNVFKKPEFAFNCKN
Consider B7, for which the “Binding Pref.” value is given as “K, R, H”.

B8: PS543: UBR-box domain homolog, SEQ ID NO: 172 (protein, listed as Trichinella spiralis)
chain: MKCNRQLICGEPTYCCLDCACDQTCIFCHACFQSSEHKNHRYSMSTSEGSGTCDCGDKEAWKSNYYCLNHKP
With B8, the “Binding Pref.” value was “K, R, H”.

B9: PS626: UBR-box domain homolog, SEQ ID NO: 186 (protein, listed as Zygosaccharomyces parabailii)
chain: MYHVYKHSGRNCGRKFKVGEPIYRCHECGYDETCVLCIHCFNPKDHDSHHVYIDICSEFSTGICDCGDTEAFVNPLHCKAEED
With B9, the “Binding Pref.” value was “K, R, H”.

B10: PS618: UBR-box domain homolog, SEQ ID NO: 178 (protein, listed as Zygosaccharomyces bailii)
chain: MNASHKGAMCSKQCYPTETVFYCFTCTTNPLYEICESCFDEEKHRGHLYTAKVVVRPEGRVCHCGDPFVFKEPRFAFLCKN
For B10, the “Binding Pref.” value is “K, R, H”.

B11: PS629: UBR-box domain homolog, SEQ ID NO: 189 (protein, listed as Pichia pastoris)
chain: MCPNYKHHGRPCARQFKQGEPIYRCYECGFDETCVMCMHCFNREQHRDHEVSISIASSSNDGICDCGDPQAWNIELHCQSELD
In the case of B11, the “Binding Pref.” value is recorded as “K, R, H”.

B12: PS622: UBR-box domain homolog, SEQ ID NO: 182 (protein, listed as Kluyveromyces dobzhanskii)
chain: MHSRFNHAGRICASKFKVGEPIYRCKECSFDDTCVICVNCFNPKDHVGHHVYTSICSEFNNGICDCGDTEAWNHDMHCKADEN
For B12, the “Binding Pref.” value is “K, R, H”.

B13: PS542: UBR-box domain homolog, SEQ ID NO: 171 (protein, listed as Trichuris suis)
chain: MRCNHVFANGEATYSCRGCAADPTCVLCASCFELSAHKEHKYMITTSSGTGYCDCGDPEAWKADPFCQQHQP
For B13, the “Binding Pref.” value was “K, R, H”.

B14: H. sapiens Fyn SH2 domain: SEQ ID NO: 116 (protein, listed as Homo sapiens)
chain: MGAMDSIQAEEWYFGKLGRKDAERQLLSFGNPRGTFLIRESETTKGAYSLSIRDWDDMKGDHVKHYKIRKLDNGGYYITTRAQFETLQQLVQHYSERAAGLSSRLVVPSHK
For B14, the “Binding Pref.” value is listed as “phospho-Y”.

B15: PS617: UBR-box domain homolog, SEQ ID NO: 177 (protein, listed as Eremothecium sinecaudum)
chain: MPKEHRGTSCNKHCQPTETVYYCFDCTKNPLYEICEECFDADKHLGHRWTSKVVSRPEGKICHCGDPSGLTDPENGYECKN
On to B15, for which the “Binding Pref.” value was “K, R, H”.

B16: PS25: SEQ ID NO: 167 (protein, listed as Saccharomyces cerevisiae)
chain: MGSVHKHTGRNCGRKFKIGEPLYRCHECGCDDTCVLCIHCFNPKDHVNHHVCTDICTEFTSGICDCGDEEAWNSPLHCKAEEQ
For the molecule B16, the “Binding Pref.” value is listed as “K, R, H”.

B17: PS625: UBR-box domain homolog, SEQ ID NO: 185 (protein, listed as Saccharomyces eubayanus)
chain: MGDVHKHTGRNCGRKFKIGEPLYRCHECGCDDTCVLCIHCFNPKDHINHHVCTDICSEFTSGICDCGDEEAWNSSLHCKAEEQ
As for B17, the “Binding Pref.” value is reported as “K, R, H”.

B18: Homo sapiens UBR2: SEQ ID NO: 174 (protein, listed as Homo sapiens)
chain: MGPLGSLCGRVFKVGEPTYSCRDCAVDPTCVLCMECFLGSIHRDHRYRMTTSGGGGFCDCGDTEAWKEGPYCQKHE
For the molecule B18, the “Binding Pref.” value is “K, R, H”.

B19: PS537: UBR-box domain homolog, SEQ ID NO: 165 (protein, listed as Aedes aegypti)
chain: MVCGRVFKIGEPTYSCRECSMDPTCVLCSSCFKKSSHRLHKYKMSTSGGGGCCDCGDHEAWKRDPSCEEHAV
As to B19, the “Binding Pref.” value was “K, R, H”.

B20: PS615: UBR-box domain homolog, SEQ ID NO: 175 (protein, listed as Kluyveromyces marxianus)
chain: MVNEHRGSQCSKQCHGTETVYYCFDCTKNPLYEICEECFDETQHMGHRYTSRVVTRPEGKVCHCGDISGYNNPEKAFQCKI
For B20, the “Binding Pref.” value is “K, R, H”.

B21: PS616: UBR-box domain homolog, SEQ ID NO: 176 (protein, listed as Kluyveromyces lactis)
chain: MHNDHRGSQCSKQCHGTETVYYCFDCTKNPLYEICEDCFDESQHIGHRYTSRVVTRPEGKVCHCGDISSYNDPKKAFQCRI
For B21, the “Binding Pref.” value was “K, R, H”.

B22: PS534: UBR-box domain homolog, SEQ ID NO: 162 (protein)
chain: MKCGHIFRKGEVFYRCKTCSVDSNSALCVKCFRATSHKDHETSFTVSAGSGGCCDCGNAAAWIGDVSCKIHSH
modifications: Schizosaccharomyces pombe
As to B22, the “Binding Pref.” value is on record as “K, R, H”.

B23: PS536: UBR-box domain homolog, SEQ ID NO: 164 (protein, listed as Aphis gossypii)
chain: MVCGRVFKMGEPTYNCRECGMDSTCVLCVDCFKRSPHKNHKYKMGTSYGGGCCDCGDVEAWKHDPYCQTHKL
For the molecule B23, the “Binding Pref.” value is listed as “K, R, H”.

B24: PS544: UBR-box domain homolog, SEQ ID NO: 173 (protein, listed as Homo sapiens)
chain: MGPLGSLCGRVFKSGETTYSCRDCAIDPTCVLCMDCFQDSVHKNHRYKMHTSTGGGFCDCGDTEAWKTGPFCVNHEP
Regarding B24, the “Binding Pref.” value is listed as “K, R, H”.

B25: PS541: UBR-box domain homolog, SEQ ID NO: 170 (protein)
chain: MRCGHIFRAGEATYRCITCAADDTCVLCSRCFDASDHTGHQYQISLSSGNCGCCDCGDEEAWRLPLFCAIHTD
modifications: Aspergillus neoniger
Turning to B25, the “Binding Pref.” value was “K, R, H”.

B26: PS540: UBR-box domain homolog, SEQ ID NO: 169 (protein, listed as Clathrospora elynae)
chain: MPCGHIFKNGEATYRCKTCTADDTCVLCARCFDASDHEGHQVFVSVSPGNSGCCDCGDDEAWVRPVHCNMHSA
Turning to B26, the “Binding Pref.” value was “K, R, H”.

B27: PS620: UBR-box domain homolog, SEQ ID NO: 180 (protein, listed as Saccharomyces cerevisiae)
chain: MGNMHIGTACTRLCFPSETIYYCFTCSTNPLYEICELCFDKEKHVNHSYVAKVVMRPEGRICHCGDPFAFNDPSDAFKCKN
In the case of B27, the “Binding Pref.” value is reported as “K, R, H”.

B28: PS624: UBR-box domain homolog, SEQ ID NO: 184 (protein, listed as Eremothecium sinecaudum)
chain: MPKNHNHKGRNCGRSFQPGEPLYRCQECAYDDTCVLCIRCFNPLDHVNHHVSTHICSEFNDGICDCGDVEAWNVELNCKAEED
For B28, the “Binding Pref.” value was “K, R, H”.
